Patent US20150152185A1

What was measured:
[1] = molecular target: CD123 (IL-3 receptor alpha chain, IL-3Ralpha) on cells (human) (UniProt P26951); assay: cell-based or functional assay
[2] = molecular target: CD123 (human IL-3Ralpha), form in the assay not stated (human) (UniProt P26951); assay: method not stated

% CD107a positive NK cells, PBMC with AML sample RMH003 and CSL360 [1]: 39%
% lysis, 51Cr release ADCC, CTLEN cells, E:T 10:1 [1]: 10%
% lysis, 51Cr release ADCC, CTLEN cells, E:T 100:1 [1]: 51%
% lysis, 51Cr release ADCC, SL (AML) cells, E:T 10:1 [1]: 2.4%
% lysis, 51Cr release ADCC, SL (AML) cells, E:T 100:1 [1]: 15%
% lysis, calcein release ADCC, RBH013 (AML), E:T 10:1 [1]: 0%
% lysis, calcein release ADCC, RBH013 (AML), E:T 100:1 [1]: 0%
% lysis, calcein release ADCC, RMH003 (AML), E:T 10:1 [1]: 39.2%
% lysis, calcein release ADCC, RMH003 (AML), E:T 100:1 [1]: 82.6%
% lysis, calcein release ADCC, RMH008 (AML), E:T 10:1 [1]: 59.5%
% lysis, calcein release ADCC, RMH008 (AML), E:T 100:1 [1]: 100%
% lysis, calcein release ADCC, RMH009 (B-ALL), E:T 10:1 [1]: 0%
% lysis, calcein release ADCC, RMH009 (B-ALL), E:T 100:1 [1]: 0%
% lysis, calcein release ADCC, RMH009* (B-ALL, repeat with other PBMC), E:T 10:1 [1]: 0%
% lysis, calcein release ADCC, RMH009* (B-ALL, repeat with other PBMC), E:T 100:1 [1]: 0%
% lysis, calcein release ADCC, RMH010 (AML), E:T 10:1 [1]: 4%
% lysis, calcein release ADCC, RMH010 (AML), E:T 100:1 [1]: 0%
% of NK cells expressing CD107a, CSL360 at E:T 1:1, CTLEN-001 [1]: 6.7%
% of NK cells expressing CD107a, CSL360 at E:T 1:1, CTLEN-008 [1]: 24%
% of NK cells expressing CD107a, CSL360 at E:T 1:1, CTLEN-010 [1]: 5.7%
% of NK cells expressing CD107a, CSL360 at E:T 1:1, CTLEN-011-PBMC-1 [1]: 8.1%
% of NK cells expressing CD107a, CSL360 at E:T 1:1, CTLEN-011-PBMC-2 [1]: 10.5%
% of NK cells expressing CD107a, CSL360 at E:T 1:1, EL4hi-002 [1]: 2.9%
% of NK cells expressing CD107a, CSL360 at E:T 1:1, EL4hi-003 [1]: 15%
% of NK cells expressing CD107a, CSL360 at E:T 1:1, EL4hi-004 [1]: 16%
% of NK cells expressing CD107a, CSL360 at E:T 1:1, EL4hi-005 [1]: 21%
% of NK cells expressing CD107a, CSL360 at E:T 1:1, EL4hi-010 [1]: 34%
% of NK cells expressing CD107a, CSL360 at E:T 1:1, EL4hi-011-PBMC-1 [1]: 15.5%
% of NK cells expressing CD107a, CSL360 at E:T 1:1, EL4hi-011-PBMC-2 [1]: 23.5%
% of NK cells expressing CD107a, CSL360 at E:T 1:1, EL4hi/lo-001 [1]: 2.8%
% of NK cells expressing CD107a, CSL360 at E:T 1:1, RBH009^a (AML) [1]: 8.5%
% of NK cells expressing CD107a, CSL360 at E:T 1:1, RBH009^b (AML) [1]: 8%
% of NK cells expressing CD107a, CSL360 at E:T 1:1, RBH013^a (AML) [1]: 10%
% of NK cells expressing CD107a, CSL360 at E:T 1:1, RBH013^b (AML) [1]: 22%
% of NK cells expressing CD107a, CSL360 at E:T 1:1, RMH003^a (AML) [1]: 30%
% of NK cells expressing CD107a, CSL360 at E:T 1:1, RMH003^b (AML) [1]: 33%
% of NK cells expressing CD107a, CSL360 at E:T 1:1, RMH003^c (AML) [1]: 38%
% of NK cells expressing CD107a, CSL360 at E:T 1:1, RMH007 (B-ALL) [1]: 16.4%
% of NK cells expressing CD107a, CSL360 at E:T 1:1, RMH008^a (AML) [1]: 9%
% of NK cells expressing CD107a, CSL360 at E:T 1:1, RMH008^b (AML) [1]: 16%
% of NK cells expressing CD107a, CSL360 at E:T 1:1, RMH008^c (AML) [1]: 8.7%
% of NK cells expressing CD107a, CSL360 at E:T 1:1, RMH009^a (B-ALL) [1]: 3%
% of NK cells expressing CD107a, CSL360 at E:T 1:1, RMH009^b (B-ALL) [1]: 1.7%
% of NK cells expressing CD107a, CSL360 at E:T 1:1, RMH009^c (B-ALL) [1]: 7.4%
% of NK cells expressing CD107a, CSL360 at E:T 1:1, RMH010^a (AML) [1]: 14%
% of NK cells expressing CD107a, CSL360 at E:T 1:1, RMH010^b (AML) [1]: 25.5%
% of NK cells expressing CD107a, CSL360 at E:T 1:1, RMH011 (AML) [1]: 6.6%
% of NK cells expressing CD107a, CSL360 at E:T 1:1, TF-1 (GM-CSF) [1]: 0.7%
% of NK cells expressing CD107a, CSL360 at E:T 1:1, TF-1 (IL-3) [1]: 1.45%
IC50, IL-3-dependent TF-1 cell proliferation [1]: 5 nM
Kd [2]: 1.06 nM
Substance: CSL360 (chimeric antibody: 7G3 variable regions on a human IgG1 constant region)
